Source: patent US20230203470A1 (published 2023)

Target: the molecule itself
Assay: size-exclusion chromatography of anti-FLAG affinity purified protein (self-association into a homodimer)
Method: Batch purification was performed using an anti-FLAG M2 affinity resin (Sigma-Aldrich, St. Louis, Mo., Cat. No. A2220), following the manufacturer's instructions. ADA2 were eluted from the resin using FLAG™ peptide. Purity of the eluted protein was assessed using SDS-PAGE and size-exclusion chromatography (SEC).

B1: WT recombinant human ADA2-FLAG polypeptide (enzyme)
chain: IDETRAHLLLKEKMMRLGGRLVLNTKEELANERLMTLKIAEMKEAMRTLIFPPSMHFFQAKHLIERSQVFNILRMMPKGAALHLHDIGIVTMDWLVRNVTYRPHCHICFTPRGIMQFRFAHPTPRPSEKCSKWILLEDYRKRVQNVTEFDDSLLRNFTLVTQHPEVIYTNQNVVWSKFETIFFTISGLIHYAPVFRDYVFRSMQEFYEDNVLYMEIRARLLPVYELSGEHHDEEWSVKTYQEVAQKFVETHPEFIGIKIIYSDHRSKDVAVIAESIRMAMGLRIKFPTVVAGFDLVGHEDTGHSLHDYKEALMIPAKDGVKLPYFFHAGETDWQGTSIDRNILDALMLNTTRIGHGFALSKHPAVRTYSWKKDIPIEVCPISNQVLKLVSDLRNHPVATLMATGHPMVISSDDPAMFGAKGLSYDFYEVFMGIGGMKADLRTLKQLAMNSIKYSTLLESEKNTFMEIWKKRWDKFIADVATKDYKDDDDK
notes: The only entry describes two identical subunits associating into the homodimer seen by SEC; Expressed in CHO-S cells and purified on anti-FLAG M2 resin; also called rHuADA2; rHuADA2-FLAG
binding result: binds
